According to patent US12673985B2, “Method for the treatment or prophylaxis of cancer by targeting the extracellular portion of keratin 14 (KRT14) residing on cancer cells” (Hudson Institute of Medical Research, priority 2019, dated 2026):
“Also recorded” adds a separate entry of the source.

What was measured:
[1] = Tissue distribution and clearance by fluorescence in mice without tumours; type: in vivo
From the text: Control mice received vehicle (PBS) alone.

KRT14+ cells = assay: Flow cytometry for KRT14+ cell populations in ovarian cancer cells; type: cell-based, human and murine; conditions: mAb AN-17 1:200
Protocol: Flow cytometry was carried out according to standard protocols (PMID: 30602661), with data acquired using a BD LSRFortessa X-20 (BD Biosciences) and analysed using FlowJo software v10.5.0 (BD Biosciences). Samples assessed for KRT14+ cell populations included OVCAR3, CAOV4, ID8 mouse ovarian cancer cells, ascites-derived ovarian cancer cells derived from a clinical specimen (designated #3.1937-07) and cardiac blood from a mice bearing 12-week old epithelial ovarian tumours. For cell lines, 1×10^6 cells per cell line were incubated with either mAb AN-17 (1:200 dilution) or a commercially available anti-KRT14 polyclonal antibody (Sigma SAB4501657; 1:50 dilution) as a positive control for 45 mins in non-immune serum at room temperature. The secondary antibodies, goat anti-mouse Alexa647 (mAb AN-17) or goat anti-rabbit IgG Alexa 488 (commercial Ab), were diluted 1:500 and incubated for 30 minutes. For blood samples, 2×10^6 cells were incubated with an Alexa Fluor®488-conjugated mAb AN-17 antibody for 45 minutes. Following PBS washes, cells were resuspended in PBS/2% FBS data was acquired using a BD LSRFortessa X-20 (BD Biosciences) flow cytometer.

[2] = test system: Murine ID8 ovarian tumour; assay: Treatment of established primary ID8 ovarian tumours in syngeneic mouse model; type: in vivo, C57BL/6 mice; conditions: 5 mg/kg i.p. bi-weekly for 3 weeks
Protocol: Mice with primary tumours (n=10/group) received mAb AN-17 at 5 mg/kg by intraperitoneal injection bi-weekly, for a period of 3 weeks. Control animals received an equivalent dose of isotype-matched control IgG kappa antibody (Control Group 1); or and equivalent volume of vehicle (PBS) alone (Control Group 2). Following 3 weeks of bi-weekly treatment (Mondays and Thursdays), all mice were culled and assessed for tumour size and weight. Two additional, non-tumour bearing animals were used as non-surgical controls.

[3] = test system: MDA-MB-468 breast carcinoma; assay: In vitro wound repair assay; type: cell-based; conditions: mAb 1 μg/ml; 16 hrs
Protocol: (§1) In vitro wound repair assay. Ovarian cancer cells (or other cancer cell lines—BT16, NCI-H1573, AN3CA, SW620 and MDA-MB-468) were grown in complete medium to confluency in a 12-well plate, then serum-starved overnight to synchronize at G0. The following day cell culture medium was removed, and cell monolayers were wounded by scraping with a pipette tip attached to suction. Non-adherent cells were removed by gentle washes with PBS, and complete growth medium with or without mAb AN-17 (1 μg/ml) or commercial KRT14 polyclonal antibody (1 μg/ml) was replaced. The wound area was imaged under a phase microscope (Leica) at regular intervals ranging from 0-72 h. Wound closure was measured in image series using AnalySIS LS Research Software (Olympus) to determine the area of the wound on each day. Experiments were repeated in triplicate with at least six wound areas observed per growth condition.
(§2) In vitro wound repair assays were conducted on the following cancer cell lines: BT16 atypical teratoid rhabdoid (brain) carcinoma, NCI-H1573 lung adenocarcinoma, SJ-GBM2 primary glioblastoma multiforme, AN3CA endometrial carcinoma, SW620 colorectal carcinoma and MDA-MB-468 breast carcinoma. Cells were grown in complete medium to confluency in a 12-well plate, and subsequently serum-starved overnight to synchronize at G0. The following day, cell culture medium was removed and the cell monolayers were wounded by scraping with a pipette tip attached to suction. Non-adherent cells were removed by gentle washes with phosphate buffered saline (PBS) and complete growth medium was added to each well, in either the absence or presence of mAb AN-17 (at 1 μg/ml). The wound area was imaged every hour for 0-24 hours. Wound closure was measured in image series using AnalySIS LS Research Software (Olympus) to determine the area of the wound on each day. Experiments were repeated in triplicate with at least six wound areas observed per growth condition.

[4] = test system: NCI-H1573 lung adenocarcinoma; assay: In vitro wound repair assay; type: cell-based; conditions: mAb 1 μg/ml; 16 hrs
Protocol: as §1, §2

[5] = test system: BT16 atypical teratoid rhabdoid (brain) carcinoma; assay: In vitro wound repair assay; type: cell-based; conditions: mAb 1 μg/ml; 16 hrs
Protocol: as §1, §2

[6] = test system: AN3CA endometrial carcinoma; assay: In vitro wound repair assay; type: cell-based; conditions: antibody 1 μg/ml; 16 hours
Protocol: as §1
(§3) In vitro wound repair assays were conducted using AN3CA endometrial carcinoma and SW620 colorectal carcinoma lines. Cells were grown in complete medium to confluency in a 12-well plate, then serum-starved overnight to synchronize at G0. The following day cell culture medium was removed, and cell monolayers were wounded by scraping with a pipette tip attached to suction. […] Wound closure was measured in image series using AnalySIS LS Research Software (Olympus) to determine the area of the wound on each day. […]

[7] = test system: SW620 colorectal carcinoma; assay: In vitro wound repair assay; type: cell-based; conditions: antibody 1 μg/ml; 16 hours
Protocol: as §1, §3

B1: mAb AN-17: monoclonal anti-KRT14 antibody; heavy chain variable region SEQ ID NO:3, light chain variable region SEQ ID NO:5 (clone AN-17A RG4.E5b.A7.B4) (antibody, listed as Mus musculus, V domains shown)
VH: QVQLKESGPGLVAPSQSLSITCTVSGFSLSRYSVHWVRQPPGKGLEWLGMIWGGGSTDYNSALKSRLSISKDNSKSQVFLKMNSLQTDDTAMYYCARKDYGYSYFDYWGQGTTLTVSS
VL: DVLMTQTPLSLPVSLGDQASISCRSSQSIVHSNGNTYLEWYLQKPGQSPKLLIYKVSNRFSGVPDRFSGSGSGTDFTLKISRVEAEDLGVYYCFQGSHVPFTFGSGTKLEIKRADAAPTVS
[1]; doses from 0.5 mg/kg to 10 mg/kg i.p.
  non-selective accumulation or retention in healthy tissues: does not exhibit non-selective accumulation or retention in healthy tissues; also recorded: No non-specific retention
[1]; doses from 0.5 mg/kg to 10 mg/kg i.p., even at the highest dose
  detectability in organs after 7 days: virtually undetectable in all organs after 7 days; also recorded: largely undetectable after 7 days
[1]; single dose 0.5 mg/kg i.p.
  antibody-associated fluorescence in brain: no fluorescence was detected in brain
  tissues with antibody-associated fluorescence: observed in intestine, reproductive organs, liver, kidney, spleen, lung and heart
[1]; single dose 0.5 mg/kg i.p., 7 day period, 0.5 mg/kg
  specific accumulation / non-specific retention in healthy tissues vs isotype control: no specific accumulation; also recorded: no non-specific retention
[1]; single dose 0.5 mg/kg i.p., 0.5 mg/kg
  clearance from organs by day 7: largely cleared from all organs; also recorded: almost undetectable after 7 days
KRT14+ cells
  detection of KRT14+ cells by flow cytometry compared to Sigma SAB4501657: comparable sensitivity
[2]
  adverse effects during treatment: had no observable adverse effects on animals; also recorded: no adverse effects noted during the treatment period
[2]; n=10/group
  primary ovarian tumours at cull / tumour progression: no tumours could be identified; also recorded: complete regression
[3]
  wound closure / migration, MDA-MB-468: failed to close the wound; also recorded: impaired
[4]
  wound closure / migration, NCI-H1573: failed to close the wound; also recorded: impaired
[5]
  wound closure / migration, BT16: failed to close the wound; also recorded: impaired
[6]
  wound closure / migration, AN3CA: failed to close the wound; also recorded: impaired
[7]
  wound closure / migration, SW620: failed to close the wound; also recorded: impaired
